Two molecules from publication PMC10206189 can be followed below.

Residue numbers refer to the chain shown, from its start. In names and notes the source's numbering stands.

The target in assay [1] is VHH14-Fc (huarizo). Put plainly: BLI; Octet RED384, 25 °C, 1× Kinetics buffer; VHH-Fc-loaded biosensors, mPlexin-B1 wildtype or H34Y P240Q at 400-6.25 nM, 300 s association, 600 s dissociation.
In assay [2] the target is VHH14-Fc (huarizo). Put plainly: BLI; Octet RED384, 25 °C, 1× Kinetics buffer; purified VHH-Fc captured on Protein G biosensors, mouse Plexin-B1 in solution (VHH14-Fc: 10-3.75 nM, 1800 s association, 7200 s dissociation; VHH15-Fc: 160-10 nM, 600 s, 510 s); global 1:1 fit.

Chain of VHH14-Fc (huarizo) (heavy, as listed by the source): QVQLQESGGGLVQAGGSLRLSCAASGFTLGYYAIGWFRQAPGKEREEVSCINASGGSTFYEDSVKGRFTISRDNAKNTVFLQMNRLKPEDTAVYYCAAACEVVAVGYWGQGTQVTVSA

B1: mouse Plexin-B1 (20–535)-6xHis (domain or fragment)
chain: LRSPLPAAFTANGTHLQHLARDPTTGTLYVGATNFLFQLSPGLQLEAVVSTGPVNDSRDCLPPVIPDECPQAQPTNNPNQLLLVSPEALVVCGSVHQGICELRSLGQIRQLLLRPERPGDTQYVAANDPAVSTVGLVAQGLVGEPLLFVGRGYTSRGVGGGIPPITTRALRPPDPQAAFSYEETAKLAVGRLSEYSHHFVSAFVRGASAYFLFLRRDLKAPSRAFRAYVSRVCLQDQHYYSYVELPLACQGGRYGLIQAAAVATSKEVARGDVLFAAFSSVAPPTVDWPLSASTGASGTSVLCAFPLDEVDQLANYTRDACYTREGRAENGTKVADIAYDVLSDCAQLPVDTPDAFPCGSDHTPSPMVSCVPLEATPILELPGVQLTAVAVTMEDGHTIAFLGDSQGQLHRVYLGPGRSAAPYSKQSIQPGSPVNRDLTFDGTFEHLYVATQTTLVKVPVAPCAQHLDCDSCLAHRDPYCGWCVLLGRCSRRSECSRDQGPEQWLWSFQPELGCLR
Regarding B1, the Kd in assay [1] was determined as 3.13 nM; in assay [2], 0.237 nM.

B2: mPlexin-B1 (20–535) H34Y P240Q (domain or fragment)
chain: B1 chain with H15Y, P221Q
As to B2, the dissociation constant (Kd) in assay [1] came out at 255 nM.
